System: MS2 coat protein
Experiment: apparent KD of MS2 coat protein; designed switch direction (-1 OFF switch, 1 ON switch): 1; higher = weaker reporter binding
In short: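 Three titration conditions were used: no input, 200 uM small-molecule ligand, and an oligonucleotide input. In each, SNAP-549-labelled MS2 coat protein was raised from 0.7 or 1.5 nM, doubling, to 3 µM over designed RNA switches transcribed on Illumina chips by stalled E. coli RNA polymerase. Curve fits of normalised cluster fluorescence gave values whose per-design median over clusters is the apparent KD.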

[1] = input ligand: microRNA oligo, concentration not stated
[2] = Eterna round: R95, input ligand: microRNA oligo, concentration not stated
[3] = Eterna round: R95, input ligand: FMN 200 uM
[4] = Eterna round: R95, input ligand: none

| Sequence | apparent KD of MS2 coat protein (input ligand: FMN 200 uM) [nM] | apparent KD of MS2 coat protein [1] [nM] | apparent KD of MS2 coat protein (input ligand: none) [nM] | apparent KD of MS2 coat protein [2] [nM] | apparent KD of MS2 coat protein [3] [nM] | apparent KD of MS2 coat protein [4] [nM] |
| --- | --- | --- | --- | --- | --- | --- |
| GGUAGGUUACUACCAGACAUGAGGAUCACCCAUGUAAGUGGGAAGGAUAUGGUACCGUUUCGGUACCAGAAGGUCCUAUGUAAG [JL SSNG3 1.45] (Eterna round: R96, puzzle: Same State NG 3) | 269 | 88.7 | 936 | – | – | – |
| UUGCUCGUGUGAGGAUAUGCCGCCGUUUCGGCUGCAGAAGGUACUCUUAUACAUGAGGAUCACCCAUGUCUCUGUUGUUUCGUG [salish99_SSNG1_r04_936] (Eterna round: R96, puzzle: Same State NG 1) | 97.9 | 65.3 | 98.2 | – | – | – |
| AGCUAUUACGAAGGAUAUUCUGACAUGAGGAUCACCCAUGUCUUCAUGAUUUAUUGUGAUCACAUGAAGAAGGUUGUACUAACA [SameState NG2 #25] (Eterna round: R96, puzzle: Same State NG 2) | 106 | 130 | 93.1 | – | – | – |
| GGUGCCAAAUAAGCCUACAUGAGGAUCACCCAUGUAUGUAGGCAGGAUAUCGUUUGCAAAGCAAACGAGAAGGGCUGAGGCACC [Mat - Same State NG 3 - JL Mod - D53] (Eterna round: R96, puzzle: Same State NG 3) | 26.1 | 42.7 | 81 | – | – | – |
| AAUUAAGAUCAAGGAUAUCACGUCGAUUAGACGUGAGAAGGUGAUCCAUACAUGAGGAUCACCCAUGUAUAACAUGAAUUAAUU [SSNG1/8-B2] (Eterna round: R96, puzzle: Same State NG 1) | 395 | 626 | 1580 | – | – | – |
| GCUGGAAACCACAUGAGGAUCACCCAUGUUCCGGAAACGGCACAGGAUAUCUGUCCGAAAAGGUCAGAGAAGGGUGGAACCAGC [Fiskers NG3ss - 82] (Eterna round: R96, puzzle: Same State NG 3) | 221 | 350 | 393 | – | – | – |
| GCUGCAUGGGCAGGAUAUGGGUCCAAAGCGCAAGUGCGCUUUGGUACAUGAGGAUCACCCAUGUCCCAGAAGGGCCCAAGCGGC [Inorgeesbi] (Eterna round: R96, puzzle: Same State NG 2) | 16.4 | 87.9 | 145 | – | – | – |
| AGAUGUUAAUCAGGAUAUGGGCACAUGAGGAUCACCCAUGUAAAUUAGAUACUAUGUGGUCAAGUCUAGAAGGGAUGGCUAACA [SameState NG2 #81] (Eterna round: R96, puzzle: Same State NG 2) | 346 | 145 | 182 | – | – | – |
| CAGCGCUGUUGAGAGGAUAUGCGGUGAUGGACAUGAGGAUCACCCAUGUUAGCGACAGCAUUACGGUAGAAGGCUCCACAGCUGC [Soteed Omei mod 14] (puzzle: Same State 2) | – | – | – | 17.9 | – | – |
| GAGUAGGACUUACAGGAUAUAUGGAGGUUGACAUGAGGAUCACCCAUGUCUGAGUUGGGAGGAGGAUAGAAGGGUAUGAGAGGCG [JR_SS2_Sub031] (puzzle: Same State 2) | – | – | – | 23.3 | 27.1 | 22.8 |
| GAGCCAGUCCGAGGAUAUUCAUAUUAAAUACAUGAGGAUCACCCAUGUAGGCUCAGAGAGCCUUGGGAGAAGGCGGACUGGCUC [Xeonanisa>>1] (Eterna round: R96, puzzle: Same State NG 2) | 24.9 | 63.6 | 113 | – | – | – |
| AGUCCAGCCUGAGCUGGACAAAAGCAUGUACAUGAGGAUCACCCAUGUUCAUGUACUAGCUUUUUGCUCGUCUUGCC [salish99_208a_r3_108x] (puzzle: Sensor for hsa-mir-208a) | – | – | – | 14.8 | 157 | 163 |
| AGUGAACAUGAGGAUCACCCAUGUGAGAGGGAUGUAGGAUAUGUAAGGAAGUAAGAUGGAACAGAAGGACAAAGUG [JR_SS!_Sub067] (puzzle: Same State 1) | – | – | – | 46.1 | 38.6 | 50.4 |
| GUGCUCGUGUGAGGAUAUGCUUCCGUUUCGGCUGCAGAAGGUACUAUUAUACAUGAGGAUCACCCAUGUCUCUUUUGUUCGGUG [salish99_SSNG1_r04_911] (Eterna round: R96, puzzle: Same State NG 1) | 66.9 | 38.2 | 58.8 | – | – | – |
| AGUCCAGCCAGAGCUGGACAAAAGCAUGUACAUGAGGAUCACCCAUGUUCAUGUACAAGCUUUUUGCUCGUCUUAAU [Mat - hsa-mir-208a - Mod of JL - 59] (Eterna round: R96, puzzle: Sensor for hsa-mir-208a) | 620 | 15.3 | 583 | – | – | – |
| UAUGAAUAGCAAGGAUAUUGAUAACAUGAGGAUCACCCAUGUAAUUGAUUGAGAAAGAUUAGUUACAAGAAGGUGCAAUUGAUU [JR_SSNG2_Sub034] (Eterna round: R96, puzzle: Same State NG 2) | 282 | 441 | 311 | – | – | – |

| Sequence | apparent KD of MS2 coat protein (input ligand: FMN 200 uM) [nM] | apparent KD of MS2 coat protein [1] [nM] | apparent KD of MS2 coat protein (input ligand: none) [nM] | apparent KD of MS2 coat protein [2] [nM] | apparent KD of MS2 coat protein [3] [nM] | apparent KD of MS2 coat protein [4] [nM] |
| --- | --- | --- | --- | --- | --- | --- |
| AGUCCAGCGAAAGCUGGACAAAAGUAUGUACAUGAGGAUCACCCAUGUUCAUGUACAAGCUUUUUGCUCGUUUUAAA [JL mod - D95 - 19] (puzzle: Sensor for hsa-mir-208a) | – | – | – | 48.1 | 814 | 928 |
| GGAGAACAUGAGGAUCACCCAUGUGGAUGGGCGCUAGGAUAUGCGAGAGGGUGAAGAGAAGCAGAAGGAGUGGAUA [JR_SS1_Sub036] (Eterna round: R96, puzzle: Same State 1) | 130 | 96.6 | 147 | – | – | – |
| GAGUAGUUGAAAGGAUAUUGAUUAUUGUAGGAUCAAGAAGGUUUUAACAUGAGGAUCACCCAUGUAGGACUAUAAAUGUGAAAA [Parity 94 - Jieux - Same State NG 1] (Eterna round: R96, puzzle: Same State NG 1) | 12.2 | 10.1 | 15.6 | – | – | – |
| GCUCGUAUGAUGACCGACAUGAGGAUCACCCAUGUGUGUCGGUAGGAUAUCUAUAUUAAGGAUAUAGAGAAGGGCCCAACGAGC [SameState NG3 #18] (Eterna round: R96, puzzle: Same State NG 3) | 114 | 103 | 158 | – | – | – |
| AUCCCAUCGGGAGGAUAUGGAACCUUAUUGGUUCCAGAAGGUCCAACAUGAGGAUCACCCAUGUGGGAGUGGUCUAAUGACCAC [Fiskers NG1ss - 29] (Eterna round: R96, puzzle: Same State NG 1) | 222 | 272 | 470 | – | – | – |
| ACAUGACAUGACAUGAGGAUCACCCAUGUGAGGAUCACCCGGGAGGAUAUAGCCCAUGUGGAUCACUAGAAGGCCCUGAGGAUC [Same State NG3 S1] (Eterna round: R96, puzzle: Same State NG 3) | 36.4 | 39.5 | 49.5 | – | – | – |
| AGUCCAGCCUGAGCUGGACAAAAGCAUGUACAUGAGGAUCACCCAUGUUCAUGUACAAGCUUUUUGCUCGUCUUAUA [salish99_208a_r3_043] (puzzle: Sensor for hsa-mir-208a) | – | – | – | 14.6 | 528 | 697 |
| UUAAUCUGAACAUGAGGAUCACCCAUGUAUCUUACCUUAGGACAGGAUAUAGAUGUUAAGAAUUACUAGAAGGGUCAGUAUAUU [JR_SSNG3_Sub012] (Eterna round: R96, puzzle: Same State NG 3) | – | 33.1 | – | – | – | – |
| GUGGUCAGACAUGAGGAUCACCCAUGUGGAAUAAAUAACAGACAGGAUAUUUAAUAUAGGAUAUAGAAGAAGGGUCGAUUGGUG (Eterna round: R96, puzzle: Same State NG 3) | 117 | 87.5 | 103 | – | – | – |
| CUCAAAACAAGUUGCAGUGUUCGUCUUUCACAUGAGGAUCACCCAUGUAAUAGCCCAGUGGAAGCGCUCGGGCCACC [Ditixe] (puzzle: Sensor for hsa-mir-208a) | – | – | – | 28.9 | 55.3 | 47.4 |
| UAGAAACAUGAGGAUCACCCAUGUGUCAAAGACAUAGGAUAUCAUAACUGGCGCCAGUUAUGAGAAGGGUGGUAAA [Belezaqu] (puzzle: Same State 1) | – | – | – | 52.6 | 33.8 | 170 |
| GAGGGACAUGAGGAUCACCCAUGUGGUAAAUUUAAAGGAUAUUAGUGUGGGAAAGUAGGGUAAGAAGGUUGAUUGG [JR_SS1_Sub086] (puzzle: Same State 1) | – | – | – | 87.7 | – | – |
| ACUUACAUGGUAGGAUAUGUCCGUCUAGCUGACACAGAAGGGCCAAGCUCUACGACAUGAGGAUCACCCAUGUGAAGGAGAGGC [Eternabot solution 49] (Eterna round: R96, puzzle: Same State NG 1) | 15.1 | 13.6 | 18.3 | – | – | – |
| AUCAAUCUAUCUGAGGAUAUCAUGAAAUAAACAUGAGGAUCACCCAUGUGCAGGAAAACUGCAUAUGAGAAGGCAGAUAGAUUGA [salish99_ss2_r3_019] (puzzle: Same State 2) | – | – | – | 323 | 63.9 | 879 |
| GUAGCAUACCGAGGAUAUUCUACAUGAGGAUCACCCAUGUUUAAUAGGCCACAUUAGUGGCCUUGGGAGAAGGCGGAAUGCUAC [Xeonanis - 20 Mod47] (Eterna round: R96, puzzle: Same State NG 2) | 13.6 | 12.7 | 19.8 | – | – | – |

Source: the supplement of paper PMC9170038
